Reference: article PMC5566480

Assays:
[1] = target: Recombinant human Toll-like receptor 2 (rTLR2) (UniProt O60603); test: ELISA; dose-dependent; rTLR2 coated, LipL32 variants 0 to 2 μM in PBS, 90 min at 37 °C, anti-His6 detection; in the presence of 1 µM Ca2+; Kd from a one-site fit
[2] = target: Recombinant human Toll-like receptor 2 (rTLR2) (UniProt O60603); test: ELISA; dose-dependent; rTLR2 coated, LipL32 variants 0 to 2 μM in PBS, 90 min at 37 °C, anti-His6 detection; in the presence of 1 µM EGTA; Kd from a one-site fit
[3] = target: Recombinant human Toll-like receptor 2 (rTLR2) (UniProt O60603); test: AFM force spectroscopy; rTLR2 covalently fixed on mica, LipL32 or variant coupled to the AFM tip (glutaraldehyde); force-distance curves, maximum distribution force and binding frequency; anti-TLR2 antibody as neutralising control
[4] = target: Recombinant human Toll-like receptor 2 (rTLR2) (UniProt O60603); test: ELISA; competition: synthesized peptides (1 μM, and dose-dependent for IC50) against the binding of rLipL32WT to rTLR2
[5] = target: Recombinant human Toll-like receptor 2 (rTLR2) (UniProt O60603); test: ELISA; details: parent: est. 0.37; read off a plot

Recombinant human Toll-like receptor 2 (rTLR2), sequence (O60603 21-784): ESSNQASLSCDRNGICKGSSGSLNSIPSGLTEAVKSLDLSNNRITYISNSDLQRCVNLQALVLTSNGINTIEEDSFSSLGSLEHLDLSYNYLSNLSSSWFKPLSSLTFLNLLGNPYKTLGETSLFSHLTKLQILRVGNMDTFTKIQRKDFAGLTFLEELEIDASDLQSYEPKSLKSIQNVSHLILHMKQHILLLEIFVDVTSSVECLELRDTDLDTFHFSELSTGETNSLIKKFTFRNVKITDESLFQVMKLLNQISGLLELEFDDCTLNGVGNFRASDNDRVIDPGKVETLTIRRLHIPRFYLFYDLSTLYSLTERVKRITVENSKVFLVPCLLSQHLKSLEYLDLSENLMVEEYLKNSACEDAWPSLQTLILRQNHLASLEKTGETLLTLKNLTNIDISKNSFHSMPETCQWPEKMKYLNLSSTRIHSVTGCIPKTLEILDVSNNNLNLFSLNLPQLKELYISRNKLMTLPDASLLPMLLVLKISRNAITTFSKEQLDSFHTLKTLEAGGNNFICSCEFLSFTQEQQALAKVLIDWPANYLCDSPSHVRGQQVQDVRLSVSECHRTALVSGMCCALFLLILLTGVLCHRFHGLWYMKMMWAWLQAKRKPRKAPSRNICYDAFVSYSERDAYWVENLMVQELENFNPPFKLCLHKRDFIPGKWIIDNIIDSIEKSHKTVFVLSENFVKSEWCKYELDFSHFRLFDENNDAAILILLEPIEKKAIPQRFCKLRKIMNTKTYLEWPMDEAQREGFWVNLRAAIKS

Substance	Kd [1] [nM]	Kd [2] [nM]	IC50 [4] [nM]	also measured
rLipL32 D195A variant (natural protein)	100	120		
Recombinant LipL32 wild type, mature form (rLipL32; 21-272) (natural protein)	130	450		maximum distribution force (AFM) [3]: 55.3 pN
C25 peptide (248–272 residues of LipL32)			140	
rLipL32 D196A variant (natural protein)	160	160		
N20 peptide (1–20 residues of LipL32)			90	
Recombinant LipL32 wild type, mature form (rLipL32; 21-272) L263S				response [5]: 0.29 OD450nm
N50 peptide (1–50 residues of LipL32)			70	
